In PMC11040352 (2024):
Starred links: 1 amine or outer side, 2 acyl side, 3 side chain; linkers in the order of their positions; H or OH if unused. Positions of bridges follow the written chain, without caps; N, C: chain ends. Primed or numbered codes have the meaning given here. *: point of attachment. NOTA = O=C(O)CN1CCN(CC(=O)O)CCN(CC(=O)*)CC1; TBMB = c1c(C[*:1])cc(C[*:3])cc1C[*:2]; PEG3′ = not defined here

Target: His-Tagged human CD38 (recombinant) (human, UniProt P28907 1-300)
Experiment: SPR

## {NOTA-PEG3′}-ACVPCADFPIWYC-NH2 (linker 2-5-13 via TBMB (inferred)) [AJ206]
  koff: 0.0006 s⁻¹
